In the test the target is CDK4 (UniProt P11802 2-303). The test can be described thus: co-IP and immunoblot, time course after serum stimulation. As for the experimental part: FIG. 2a is a diagram confirming that E2F1 was combined with RUNX3 by measuring the time-dependent formation of BRD2-RUNX3, E2F1-RUNX3, CDK4-RUNX3, Cyclin D1-RUNX3, HDAC4-RUNX3, p16INK4a-CDK4, p21-CDK4, Cyclin D1-CDK4 and HDAC4-CDK4 complexes by immunoprecipitation (IP) and immunoblotting (IB), and the time-dependent phosphorylation of pRB (at Ser-795) and ERK1/2 by immunoblotting (IB).
CDK4, sequence (P11802 2-303 limits assumed): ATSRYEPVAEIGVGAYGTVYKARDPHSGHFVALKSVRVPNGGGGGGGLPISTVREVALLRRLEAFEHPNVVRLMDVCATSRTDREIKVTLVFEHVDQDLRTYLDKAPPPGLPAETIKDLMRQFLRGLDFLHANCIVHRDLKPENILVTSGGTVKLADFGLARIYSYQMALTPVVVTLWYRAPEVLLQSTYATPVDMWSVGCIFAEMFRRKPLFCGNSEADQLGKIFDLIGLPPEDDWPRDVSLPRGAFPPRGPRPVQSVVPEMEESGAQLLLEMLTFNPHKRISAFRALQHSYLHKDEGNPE
Transient transfection was performed in all cell lines using lipofectamine plus reagent and lipofectamine (Invitrogen). Cell lysates were incubated with an appropriate monoclonal or polyclonal antibody (2 μg of antibody/500 μg of lysate sample) at 4° C. for 3 hours, followed by incubation with protein G-Sepharose beads (Amersham Pharmacia Biotech, Piscataway, NJ, USA). For the detection of endogenous proteins at 4° C. for 1 hour, the lysate was incubated with an appropriate monoclonal or polyclonal antibody (1:1000-1:3000) at 4° C. for 6 to 12 hours, and then protein G-Sepharose beads (Amersham Pharmacia Biotech) were […] at 4° C. for 3 hours. The immune precipitate was […] on an SDS-polyacrylamide gel electrophoresis (SDS-PAGE) gel and transferred to a PVDF membrane (Millipore, Billerica, Mass., USA). […]

B1: p16INK4a (other, UniProt P42771 1-156, looked up)
chain: MEPAAGSSMEPSADWLATAAARGRVEEVRALLEAGALPNAPNSYGRRPIQVMMMGSARVAELLLLHGAEPNCADPATLTRPVHDAAREGFLDTLVVLHRAGARLDVRDAWGRLPVDLAEELGHRDVARYLRAAAGGTRGSNHARIDAAEGPSDIPD
Regarding B1, the binding result is recorded as “binds”.

The values above are taken from patent publication US20210330742A1 (RUN X, published 2021).
